Laboratory results: EP4279506A1 (Persongen Biotherapeutics (Suzhou) Co., Ltd., dated 2023)

T1: human 4Ig-B7-H3 (h4IgB7H3) expressed on Raji cells (human, UniProt Q5ZPR3 29-534)
T1 construct: whole, on cells; also called h4IgB7H3-Raji
T1 sequence (looked up): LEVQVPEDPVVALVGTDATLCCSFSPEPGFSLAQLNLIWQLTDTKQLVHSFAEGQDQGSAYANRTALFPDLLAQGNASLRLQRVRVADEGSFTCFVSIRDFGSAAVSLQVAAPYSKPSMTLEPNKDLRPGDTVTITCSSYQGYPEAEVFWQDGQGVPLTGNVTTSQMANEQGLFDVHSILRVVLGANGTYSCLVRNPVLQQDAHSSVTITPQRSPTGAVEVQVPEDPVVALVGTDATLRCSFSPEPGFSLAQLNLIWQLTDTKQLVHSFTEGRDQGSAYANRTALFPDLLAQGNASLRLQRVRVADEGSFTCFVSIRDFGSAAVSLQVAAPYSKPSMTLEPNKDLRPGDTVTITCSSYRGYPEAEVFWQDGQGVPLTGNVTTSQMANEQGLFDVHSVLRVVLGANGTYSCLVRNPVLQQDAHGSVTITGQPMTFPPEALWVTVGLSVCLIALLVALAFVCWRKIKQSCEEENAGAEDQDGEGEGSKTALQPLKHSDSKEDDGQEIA

T2: murine 2Ig-B7-H3 (m2IgB7H3) expressed on Raji cells (mouse, UniProt Q8VE98 29-316)
T2 construct: whole, on cells; also called m2IgB7H3-Raji; mB7-H3-Raji
T2 sequence (looked up): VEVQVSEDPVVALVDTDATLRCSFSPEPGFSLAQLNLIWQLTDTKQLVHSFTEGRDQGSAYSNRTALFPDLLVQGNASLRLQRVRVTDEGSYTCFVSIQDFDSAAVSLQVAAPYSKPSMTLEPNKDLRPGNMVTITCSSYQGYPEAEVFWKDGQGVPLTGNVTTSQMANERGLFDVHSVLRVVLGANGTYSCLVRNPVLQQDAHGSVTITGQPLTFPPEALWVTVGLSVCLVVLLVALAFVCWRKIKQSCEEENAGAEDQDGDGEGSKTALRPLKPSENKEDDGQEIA


Tests used:
[1] = target: T1, human 4Ig-B7-H3 (h4IgB7H3) expressed on …; experiment: flow cytometry on h4IgB7H3-Raji cells
[2] = target: T2, murine 2Ig-B7-H3 (m2IgB7H3) expressed …; experiment: flow cytometry on m2IgB7H3-Raji cells
[3] = target: B7-H3-His recombinant protein (UniProt Q5ZPR3); experiment: SPR; B7-H3-His on CM5 chip, antibody as mobile phase

Row | binding result [1] | binding result [2] | Kd [3] [nM] | koff [3] [s⁻¹] | kon [3] [M⁻¹ s⁻¹] | Binder
1 | binds | binds | 114 | 0.00282 | 24800 | humanized B7-H3 antibody T1H1-T1L1 (αhB7-H3 antibody) (antibody, V domains shown, They were subcloned into the pcDNA3.1-IgG1Fc (heavy) and pcDNA3.1-IgKc (light) expression vectors; The antibody was detected with anti-human IgG; also called αhB7-H3 Ab; B7-H3 T1H1-T1L1) VH: EVQLVESGGGLIQPGGSLRLSCAASGFTFSTYVMSWVRQAPGKGLEWVSSILSGGTSFYADNVKGRFTISRDNSKNTLYLQMNSLRAEDTAVYYCARRYGHDHYYAMDYWGQGTLVTVSS VL: EIVLTQSPATLSLSPGERATLSCAASSSVSSSYLHWYQQKPGLAPRLLIYSTSNLASGIPDRFSGSGSGTDFTLTISRLEPEDFAVYYCQQYHRSPWTFGGGTKVEIK
2 |  |  | 72.8 | 0.00289 | 39700 | humanized B7-H3 antibody T2H1-T2L1 (βhB7-H3 antibody) (antibody, V domains shown) VH: EVQLVESGGGVVRPGGSLRLSCAASGFTFSTYVMSWVRQAPGKGLEWVSSILSGGTSFYADNVKGRFTISRDNAKNSLYLQMNSLRAEDTALYHCARRYGHDHYYAMDYWGQGTTVTVSS VL: DIQMTQSPSTLSASVGDRVTITCAASSSVSSSYLHWYQQKPGKAPKLLIYSTSNLASGVPSRFSGSGSGTEFTLTISSLQPDDFATYYCQQYHRSPWTFGQGTKLEIK
3 |  |  | 70.8 | 0.00258 | 36400 | mouse anti-human mB7-H3 antibody (antibody, V domains shown) VH: EVTLVESGGGLVKPGGSLKLSCAASGFTFSTYVMSWVRQTPEKRLEWVASILSGGTSFYADNVKGRFTISRENARNILYLQMSSLKSEDTAMYYCVRRYGHDHYYAMDYWGQGTSVTVSS VL: QIVLTQSPANMSASLGERVTMTCAASSSVSSSYLHWYQQKPGSSPKLWIYSTSNLASGVPGRFNGSGSGTSYSLTISSMEAEDAATYYCHQYHRSPWTFGGGTKLEIK
